Results taken from the domain aggregation screens of Martell et al. (2025).

Assay: soluble fraction after stress (log2 fold change); higher = more stays soluble; pooled small domains, quantitative proteomics
Details: stress: 75 degC
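Further: 20 min heating vs room temperature control held 20 min.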

Sequence	soluble fraction (log2)
HMDIYLTAFKTTSNQVTLNGIARSDLIISEFMRDIRDAKLFGEPVLQVIQNKNLNNVQARVFELVVPL	0.115
HMDKATMRWEQIEKFLETHPYIMNADVRALFNVSAATANRILATLTTEGKLVKYREGGHWAYKY	-1.1
HMDKELILLWDRVKSKVWQMDIQDSQVANWFQRNYHLTVRLRDFDPPVPPDKFTAEQLASFIKDIERHT	-2.41
HMDKGMQTMIDNLHKNTGKTLEEWIALVNRANFAKHGEVISFLKEKHGLTHGYANLVAHRLK	0.863
HMDKINQEAIEDEAGLWLAKIDGRQLAQEEVRELIAWMRRSDFHREYLITLARQWDGMAALNKLATLFP	-2.08
HMDKLFNRQTLGGVELTQKQIEDLNAGKAIFVEGMQRKDGEVFSSYVKLDEATGRPSYTRYNPDSP	0.933
HMDKLSYALGLSMGHNFLGSGIKSLNVEDFAKGVEAVYKQEKPEISFDEAKKIINEFFSNLQDEIAE	-1.01
HMDKNLQYADTPKGKLREYIKNLPNGSTVNRQKLAEEFGIKKQSMGTVTEVFQEFPDKNFKFVNP	-0.0476
HMDKPVIEDVSFDDLAYMVGERVIIRTHLRSTRDGELKSFNRAGILVSLRNRPGMELEIPRSTVASAQVVW	-2.39
HMDKQEKIHKKKIIILEALKRLLQNDVYSRITVQAVADEAGFSKGGLLHYFPTKEEMYIEFMEY	-0.103
HMDKRYYYRILGLVGEPTRDQIEAAYETRIAKLRSSDYGDDPLYARRKISEVTMAYKVLTGS	-1.56
HMDKSFLQSLHLIALGIVKNQMDPWELVNGWVEYYLKNKDKYIDHPNLKAVAVLKMKGLFIDHFRKS	-5.84
HMDKSHYEELGVSRTATHAEIRRAYRHLMRTLHPDSNDGRVDAVRITKVNEAWNVLSQSSSRNAYDKSQV	-0.235
HMDKTTIKNEQKKQILIFAEMNLFFKAKDVAELLGLQASRARYLLQELVKDGKIQGIGNNKGRKYQLI	-0.729
HMDKVEQLMQNPVIQEKMSEGDRELLRNASLVVLGRLEDDGSIIQRFVELFGEEAYERLKSELM	-0.0149
HMDLDIGSVLQASRGEKKISLRQLAERTGLTASMLSQIERNLVNPSINTLKVIAAALEIPMYKFFMG	-1.17
HMDLEMLEVEDTIKDLLSQHQKINAIKYYRNYMSEQLNVDMGLRQAKDTIDAIGRGATVDLSVGY	-0.0747
HMDLIEVLAQDTIKKIYNTYVAYKNKVDVFYVAFSGGKDSIVTLDLVQRTLPHNEFKVLFGDTGM	0.243
HMDLIFQKGDLVFSTEHNQRGIFYEYLEQGQAKISIEKQFFVVAARRLQLLTKREVLYPAGYDLDQLFV	-2.21
HMDLKENQHILQISNKGVQMGNVLKDLIIQTLNITNGNQIKAAKLLAISRAKLRYRIEQLGINISGKNI	0.000197
HMDLKHNQITMRELLRNKQAYLLLYKEFPMFMTPAILQNIRPLTLQQIIQMVRPYISRPKLNMLLEQLENI	0.164
HMDLMQRVIIVRPVMQGDYLTRAHLGLQTLSRNGGGGFTDIDDLVGRRAKKSLRAGLVVHNRHL	-0.813
HMDLPAEFSKPELETLFKRGKQSGELSLTEVRDALEAAQLPNKKTQTKVLKVLSDNAIHVLMDG	0.0744
HMDLPDFTSRERDILARVVQGDSNERIAASLGVSVSTVKTHIGNILRKTGQTNRVRLIVWATRHL	-2.58
HMDLPDYYFRVRENGAVVFRVGTENRQRRIEMVEIATVNVKNGNIKPHGEVDLTKADRLAIGEWLAARQAQ	-1.54
HMDLPRQSQYQALVVSYARRAGIDEAEEDLLAAFEVWRMRHNHDLAGGRTARDFILAYLPQYQRHKE	-1.98

Sequence	soluble fraction (log2)
HMDLQNIQNQLNTEFAKSDTRIIFWFDDKGEYEDEVSELQLGDVKLHILDGLNWFYSKYLLNEA	-0.141
HMDLRAPKPIKEMGEEYIKLYQYLRKGESENIVMSKMNISLDDYDYMRSEIEDKLSLYNMLDLLRKP	-0.978
HMDLRVKRTNKMIMEAFIHLVEQKGYDNITVQEIADEAMINRATFYAHFKDKQDLYDHIFKQAI	-0.902
HMDLSPEQAELAAIRGELGIKIDDYALALNIPRDRLTSYLYGRANVPAEVLISARELRYASSA	-0.0206
HMDMQNIQKGLSAIEPGRTFSREEYYAAIQNGSEMLLKEDALAYSLRKSLSDGDIVRVSWNQYAIP	-0.107
HMDMTPEEFLAWARHKPFGDPFPKTQTVTFLVPLLGVSRTNIFTWISGKVNPSKTSLLLMEALKRENR	-0.493
HMDNEIEQIVEDLNLTLSSLKYTKNQIESILPLIIKEIDDFKKKEKNISFENLLKLAMNHLDND	-0.38
HMDNEIRIPLPSLQRDGFSIGTREDDGSQLVRIMSAGSFGGMIRSFRLPEGMRIEGAKWEGEIVSIRL	-0.00847
HMDNEVTIAVQVNGKLRDKLIVALDTPNEKIEQLALALPKVIQNTSGLTVRKVIVIPNRLVNIVA	-1.92
HMDNIKRGEMFYISRGGASYSGSEQHSDRPAVVVSNDKNNENSNVVEVVYMTTQPKTDLPTHVTVR	0.0515
HMDNLKELDEILETYGKKKGYLITILQKAQDAYGYISIDIMNRISEFTGIKVAKIYGVATFYAQFRL	0.0785
HMDNPLSQQEKRILQLISLGKTNQEIADILYLSNGTVRNYISSILNKLSANNRVEAARIAEEHGW	-0.755
HMDNPNVMAQVKSLLASKGLSEQEVKERLKAKGLNIDAMSDAEIAQNRSVIEQTIAELEAEKKKAG	0.205
HMDNPYEVFIPNSYIGQRLDQTLASLFPQFSRSRLQNWLASGNLLVNGKIVKPKTKILGGEQINILDPYN	-0.608
HMDNTFEEVKEKLLDLLKERPLTPAEVSKRMEEDKNILAQVIQYLLEEEIIKTEDGMLSKVIG	-0.038
HMDNWYIAFNSFLSQNKLTAKNVSELTGLSKPTIDSYKQGKRKPTDENMQIIKDKLGFNISEILYN	-0.0615
HMDPDDEILINIMTKLLTEKQIIIKNKEIFNFLLKRINRTYEEVYNLINKMDKLSLEKKKQLTIPSIKEL	-1.71
HMDPEEETLKNMQRMLQDSGPLKKTEFSLLAKSLGIAEKKARKLIDRGRGRFWTVESGEQKNTQLVTPIQ	-0.108
HMDPERVVGQTGIVHLRIPARQHNTGKVMIEVQGSLREFDAVSEAEEIPTGTPILIVGRTEEGVFIAQPF	-0.286
HMDPGPVLISAQVLDDLEAIRRDGSSNMLDWPAVARLAEVMGMDRTAAWVRTHHREYSAGIFRGFASD	-1.93
HMDPHEEELLRQLIRGDIAGYEVLFHKYYPTFFAFIKGMTKETVVAEDITQNIFMKVWLNRERLDAA	-0.145
HMDPIATLTPREREVLSLMAEGRSNGAIAAALVVGDGAVEKHVSNIFQKLELTPAEGDHRRVLAVLRWLE	-0.909
HMDPLADLFSRIRNAQMRNKKVVTSPASKLRAGILEVLAKEGYIRGYAMTQHASGKNELDIELN	-1.05
HMDPNAITSAQVTKLQVLANEKGFAERQARLTMWAEVIGRNVGTANELTKAEAHKLIEHMDALPV	-0.691
HMDPNFKYIIRIANSDVSGEQKLAYALTSIRGIGERTSNAIIQKLGLDSTQLAGKLTDKNVEDIESA	0.092
HMDPPQEVWDLTRSYLDSMNRPVHGHKSPQETYLRQVKSHRLPATALWDYFMAQRFHAVHATSESAA	-0.127

Sequence	soluble fraction (log2)
HMDPPYKDKNLHELLLKINNLNILKKDSVIILHRHKKQKEIFPSNFKIIEQKQYGISKIIFLTVL	-0.00334
HMDPRTSSLTPQERKVLELVGGGLTNRQIAAEMFLAEKTVKNYVSSLLAKLGFERRTQAAVFIASPAF	-0.54
HMDPSKLVEVQEPVSMKALSEGLGIKVTELIATFAFKLKIGGKNINSMLSNDEVELVALDLERNIKVV	0.258
HMDPTEPLFVGVVTAEPYLNIREYPTTQSKDLGDLFPGMHVNVYEIVPNWYRIDDGWVASAWVKRDWGGG	-0.478
HMDPTIRRGELIDAASRLFLSKGYAATSVRDILDEVGNRTASPSVFYYYFKSKEEIYQAVLRRHSE	-1.51
HMDPTVSGQTGSVVREIRPGVPGEVELSVPLYGIRRWQAMADGILAEGTRVTVIQAEGVRLSVRPV	-1.24
HMDPTVTFIVQVNGRVRDKITLSSDISENEAKNVALESPKITPHISGKSLSRVIFVPGKLINLVV	-1.06
HMDPVATLTPREREVLELMAEGRTNAGIAEAMVVTEGAVEKHIQRIFAKLGLHADGGVHRRVAAVLALLG	-1.38
HMDQDIILHKVQPGDTLSKILLHYHSHQDRNKLQGLIAESMTANPFIKNPDLIYPGQLIQVPVPA	0.0879
HMDQFMLQSAWLRAVQHVMKHTDDVGTQFAEEARRMHYGEADERPIRGQATSDEARALHDEGIEVMALPI	-0.36
HMDQILIHLKEGIDVTDVQPMLKALDLNVRMFNRDKNIIVISVLNRELDAIPQTIAALRPWEELFDSA	0.171
HMDQNVSVPKLAGLQVEEANAILKSKGLHIEIIDSIYQKDAVPGAIIEQVPEENSKVKKGRAIYVSVYAK	-0.65
HMDQVYYDLKSLIELLPADQMEVLKMRYFEELSFKKIAQKIDVSINTALGRMRYALINLRALSKKHHID	-0.272
HMDRDMGSMTDFENVRDAYLTGKVWNVGDLIEANGITGIIIRKGTNYVSYNDGDGKVHKAWLHDITL	-0.802
HMDREILWTNYVAARKQEFIASSIDTIGAEYLDNRRFWDTQFEREWTIIAERLASGFGLTDDILSIVGSDF	-4.12
HMDRETEEYELIRAKLEWLYQKQTGTIRNQTAKILHHLEIAKEEGNYYLYLKIKEEAKQWLVQASMYLD	-0.638
HMDRGDVTREALIKAAIEIFGRDGFHAASTRAIAERAGANQALIGYHFRGKLGLYHATFEYIIGKI	-0.351
HMDRMINYSPIVAKVPQDDYTTKVYNIPIYSELTVVDKISEPEPLIAPIYRFKYITPEDEEIEFDIPV	-0.00941
HMDRMMQPETWGRVYQWITDDPQVPDREEVLTLIKYHYGDFGKLMKLLHRLNEGKAWTYLSEHIFPRM	-0.254
HMDRNEFVSTLRAALTGAVSPAIVEDNVRYYQNYISQEIASGKSEKEVLDGLGDPRLIARTIIDT	0.0747
HMDRNIVYSDFIRSVNQGQVSEVLVQGDNIRGRYLNGKVFQTFAPKDPSLISTLRNKGVRISAEPA	0.00952
HMDRRSTTLQDIYTRIDAEEISEALELIPKLGEIEFEQNRAEIAEAAGVRPAVLDKLRKQAAKQENNKK	-0.00584
HMDRSAQVLFLEHARSRLPQRIQWAEELAELLSIGIDSAYRRIRGETALTFNEAVSVSRKYDISLDYLFK	-3.79
HMDRSKREKEQQELMLKVQQIFDDNQQRFGAEKIRTVLAQNGVRVSVKRVSAIMQELNLRSIR	-2.36
HMDRVMPVPEALIGMRFDIAVSRMLGVSRSQAAAYIDRGQVSIAGRGSQRSAQKSEKLVQGDSIEVAIA	-1.39
